Source: paper PMC6506263 (The Biochemical journal, 2019)
Where a chain is given by its changes, count along the chain named. Names and notes keep the numbering of the source.

B1: CusScp-short, cytoplasmic domain of CusS (amino acids 208–480) with C-terminal 6xHis tag, wild-type (domain or fragment, E. coli)
chain: MASKGHAPIRSVSRQIQNITSKDLDVRLDPQTVPIELEQLVLSFNHMIERIEDVFTRQSNFSADIAHEIRTPITNLITQTEIALSQSRSQKELEDVLYSNLEELTRMAKMVSDMLFLAQADNNQLIPEKKMLNLADEVGKVFDFFEALAEDRGVELRFVGDKCQVAGDPLMLRRALSNLLSNALRYTPTGETIVVRCQTVDHLVQVIVENPGTPIAPEHLPRLFDRFYRVDPSRQRKGEGSGIGLAIVKSIVVAHKGTVAVTSDARGTRFVITLPALE
B2: N-terminal Strep-tagged CusS(39–187) wild-type, periplasmic sensor domain of the histidine kinase CusS (domain or fragment, E. coli)
chain: VKVHFAEQDINDLKEISATLERVLNHPDETQARRLMTLEDIVSGYSNVLISLADSQGKTVYHSPGAPDIREFTRDAIPDKDAQGGEVYLLSGPTMMMPGHGHGHMEHSNWRMINLPVGPLVDGKPIYTLYIALSIDFHLHYINDLMNKLEGSA
B3: N-terminal Strep-tagged CusS(39–187)-IIA (M133I/M135I/H145A), internal metal binding site eliminated (domain or fragment, E. coli)
chain: B2 chain with M95I, M97I, H107A
B4: CusScp-long, cytoplasmic domain of CusS with C-terminal Strep-Myc-Strep-FLAG-HA-Strep tags, wild-type (domain or fragment, E. coli, UniProt P77485 208-480, looked up)
chain: KGHAPIRSVSRQIQNITSKDLDVRLDPQTVPIELEQLVLSFNHMIERIEDVFTRQSNFSADIAHEIRTPITNLITQTEIALSQSRSQKELEDVLYSNLEELTRMAKMVSDMLFLAQADNNQLIPEKKMLNLADEVGKVFDFFEALAEDRGVELRFVGDKCQVAGDPLMLRRALSNLLSNALRYTPTGETIVVRCQTVDHLVQVIVENPGTPIAPEHLPRLFDRFYRVDPSRQRKGEGSGIGLAIVKSIVVAHKGTVAVTSDARGTRFVITLPA

Legend:
[1] = target: TorS sensor domain (Escherichia coli) (UniProt P39453); conditions: cited from earlier work
native gel or EMSA = target: the molecule itself; experiment: native gel or EMSA
cross-linking = target: the molecule itself; experiment: cross-linking

Molecule | binding result (native gel or EMSA) | binding result (cross-linking) | also measured
TorS sensor domain (from UniProt P39453) |  |  | Kd [1]: 49.6 µM
B1 | binds |  | 
B2 |  | binds | 
B3 |  | binds | 
B4 | binds |  | 
